The values below come from publication PMC2714943 (Biochemistry, 2009).

The target of series [1] is (+)-δ-cadinene synthase (DCS, isozyme XC1) (Gossypium arboreum, UniProt Q39761).
In series [2] the test system is CC(C)=CCC/C(C)=C/CC/C(C)=C/CO[P@@](=O)(O)OP(=O)(O)O. The series can be described thus: purified protein. The series is classed as biochemical, Gossypium arboreum. Particulars: Mg2+.

Chain of (+)-δ-cadinene synthase (DCS, isozyme XC1) (Q39761 whole entry): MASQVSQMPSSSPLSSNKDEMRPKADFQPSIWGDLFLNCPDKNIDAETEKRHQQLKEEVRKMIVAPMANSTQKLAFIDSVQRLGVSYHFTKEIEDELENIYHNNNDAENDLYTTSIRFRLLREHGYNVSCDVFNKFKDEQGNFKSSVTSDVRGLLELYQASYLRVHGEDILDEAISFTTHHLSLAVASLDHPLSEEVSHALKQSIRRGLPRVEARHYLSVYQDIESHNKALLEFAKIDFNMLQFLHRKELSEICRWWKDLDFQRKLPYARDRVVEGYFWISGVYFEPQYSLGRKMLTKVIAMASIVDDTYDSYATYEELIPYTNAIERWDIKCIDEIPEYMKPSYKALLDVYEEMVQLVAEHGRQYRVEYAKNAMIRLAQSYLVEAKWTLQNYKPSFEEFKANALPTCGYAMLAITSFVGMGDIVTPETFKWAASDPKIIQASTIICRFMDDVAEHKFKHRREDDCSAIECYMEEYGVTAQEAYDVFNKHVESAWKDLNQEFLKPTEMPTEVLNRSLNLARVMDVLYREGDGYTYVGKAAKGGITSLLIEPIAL

The Km is the substrate concentration at which the rate is half of its maximum. Regarding `CC(C)=CCC/C(C)=C/CC/C(C)=C/CO[P@@](=O)(O)OP(=O)(O)O` [FPP], the Km in series [1] worked out at 3.2 ± 0.5 µM. Consider “(+)-δ-cadinene synthase (DCS, isozyme XC1) (Gossypium arboreum; D308A)”, for which the Km in series [2] worked out at 43 ± 16 µM.

Regarding “(+)-δ-cadinene synthase (DCS, isozyme XC1) (Gossypium arboreum; D451A)”, the Km in series [2] was determined as 2.4 ± 0.3 µM. Still for that read-out and setting: the result for “(+)-δ-cadinene synthase (DCS, isozyme XC1) (Gossypium arboreum; D452A)” reads 3.1 ± 1.2 µM.
